Experimental data from US20260055200A1, “COMBINATION THERAPIES” (Alligator Bioscience AB, priority 2022, published 2026).
Entries after “also recorded” stand apart in the source; their conditions may differ.

Legend:
[1] = system: tumour associated macrophages (TAMs); conditions: TAMs from human prostate and ovarian tumour samples; cited from earlier work
[2] = system: metastatic pancreatic ductal adenocarcinoma; experiment: OPTIMIZE-1 anti-tumour activity per RECIST v. 1.1 (ORR, BOR, DCR, DoR, time to progression, PFS, OS); format: in vivo, human
Description: The interim analysis was based on objective response rate (ORR) observed for all patients dosed at the mitazalimab RP2D. The interim analysis included efficacy data up to 17 weeks of study treatment (8 cycles for mFOLFIRINOX and 4 cycles for gemcitabine plus nab-paclitaxel).
A CT scan is performed at screening (within 28 days of first dose), 9 weeks after start of study treatment (end of cycle 4 for mFOLFIRINOX combination and at end of Cycle 2 for gemcitabine plus nab-paclitaxel treatment) and thereafter at every 8th week assuming no treatment delays. Additional CT scans may be performed at the discretion of the Investigator at unscheduled visits. The CT scans were evaluated according to RECIST v. […] Patients with response (PR or CR) can have a confirmatory CT scan at least 4 weeks later to confirm the response.
The evaluation of tumour response was done according to RECIST v. 1.1 by the investigational sites using CT scans according to Example 3 RECIST v. […] Patients with PD can discontinue study treatment. However, patients with suspected progression are allowed to continue on treatment if they are considered to be clinically stable in the opinion of the Investigator until clinical or radiological progression is documented.
For the interim analysis, the ORR was based on the response evaluation after 8 cycles for mitazalimab in combination with mFOLFIRINOX or 4 cycles for mitazalimab in combination with gemcitabine plus nab-paclitaxel (i.e., approximately 4 months after first dose). […] In addition, ORR was presented for each study visit. Patients not evaluable for ORR and who completed at least 2 cycles were considered as non-responders.
All secondary efficacy endpoint were presented using descriptive statistics. Best Overall Response (BOR) for each patient will be defined as the best response from RECIST v. 1.1 categories CR, PR, SD and PD at any time during the study. Disease control rate will be defined as either CR, PR or SD at each visit as determined by RECIST v. […] The duration of response (DoR) was defined as number of days from initial response of CR or PR to progressive disease or death due to underlying disease, whichever came first. Duration of Stable Disease (SD) was defined as number of days from first dose of mitazalimab to progressive disease or death, whichever came first. Time to next anti-cancer therapy was defined as number of days from the time from first dose of mitazalimab to next treatment initiated.

[3] = 450 μg/kg mitazalimab, N = 5, Table 42
[4] = 450 μg/kg mitazalimab, N = 5, safety set, Table 25
[5] = 900 μg/kg mitazalimab + mFOLFIRINOX, FAS N = 23, futility analysis, responses need not be confirmed
[6] = 900 μg/kg mitazalimab + mFOLFIRINOX, FAS N = 57
[7] = 900 μg/kg mitazalimab + mFOLFIRINOX, FAS N = 57, including unconfirmed responses
[8] = 900 μg/kg mitazalimab + mFOLFIRINOX, FAS N = 57, 95% CI (5.8-9.4)
[9] = 900 μg/kg mitazalimab + mFOLFIRINOX, FAS N = 57, first block of Table 49
[10] = 900 μg/kg mitazalimab + mFOLFIRINOX, FAS N = 57, second block of Table 49
[11] = 900 μg/kg mitazalimab + mFOLFIRINOX, FAS, n = 18
[12] = 900 μg/kg mitazalimab, N = 23, FAS, data cut-off 2022 Dec. 8
[13] = 900 μg/kg mitazalimab, N = 38, safety set, Table 25
[14] = 900 μg/kg mitazalimab, N = 65, Table 42
[15] = Overall, N = 43, safety set, Table 25
[16] = futility analysis (FAS), 900 μg/kg mitazalimab and mFOLFIRINOX, 23 patients
[17] = individual patients, End of Treatment visit, 900 μg/kg mitazalimab + mFOLFIRINOX, futility analysis
[18] = individual patients, Unscheduled visit, 900 μg/kg mitazalimab + mFOLFIRINOX, futility analysis
[19] = individual patients, visit Cycle 4, 900 μg/kg mitazalimab + mFOLFIRINOX, futility analysis
[20] = individual patients, visit Cycle 8, 900 μg/kg mitazalimab + mFOLFIRINOX, futility analysis

B1: Mitazalimab: agonistic, human monoclonal (IgG1) antibody targeting CD40 (antibody, chains of the INN, looked up, V domains shown)
VH: EVQLLESGGGLVQPGGSLRLSCAASGFTFSTYGMHWVRQAPGKGLEWLSYISGGSSYIFYADSVRGRFTISRDNSENALYLQMNSLRAEDTAVYYCARILRGGSGMDLWGQGTLVTVSS
VL: QSVLTQPPSASGTPGQRVTISCTGSSSNIGAGYNVYWYQQLPGTAPKLLIYGNINRPSGVPDRFSGSKSGTSASLAISGLRSEDEADYYCAAWDKSISGLVFGGGTKLTVL
[1]
  polarization of TAMs (upregulation of e.g. CD83): from a more immune-suppressive phenotype into a more immune-inflammatory phenotype
[2]; [3]
  Discontinued study: Death due to disease progression, number of patients: 4
  Discontinued study: Death due to disease progression, percentage relative to number discontinued: 80.0%
  Discontinued treatment: Death, number of patients: 0
  Discontinued treatment: Death, percentage relative to number discontinued: 0.0%
  Discontinued treatment: No longer clinically benefiting, number of patients: 0
  Discontinued treatment: No longer clinically benefiting, percentage relative to number discontinued: 0.0%
  Discontinued treatment: Progressive disease, number of patients: 4
  Discontinued treatment: Progressive disease, percentage relative to number discontinued: 80.0%
[2]; [4]
  Discontinued study: Death due to disease progression, number of patients: 2
  Discontinued study: Death due to disease progression, percentage of patients: (40.0) %
  Discontinued treatment: Clear clinical deterioration, number of patients: 0
  Discontinued treatment: Clear clinical deterioration, percentage of patients: (0.0) %
  Discontinued treatment: Death due to disease progression, number of patients: 2
  Discontinued treatment: Death due to disease progression, percentage of patients: (40.0) %
  Discontinued treatment: Progressive disease, number of patients: 2
  Discontinued treatment: Progressive disease, percentage of patients: (40.0) %
[2]; 900 μg/kg Mitazalimab (N = 57) with mFOLFIRINOX, CR, PR or SD as best overall response, RECIST 1.1
  Disease control rate (FAS): 44 (77.2)
[2]; 900 μg/kg mitazalimab + mFOLFIRINOX, FAS N = 23, futility analysis
  Disease control rate (CR, PR or SD), %: (91.3) %
[2]; [5]
  Best Overall Response: Partial response, %: (52.2) %
  Best Overall Response: Progressive disease, %: (8.7) %
  Best Overall Response: Stable disease, %: (39.1) %
  Responders (complete or partial response, RECIST 1.1), %: (52.2) %
[2]; [6]
  BOR: Not evaluable, number of patients: 1
  BOR: Not evaluable, percentage of patients: (1.8) %
  Time to progression: Censored patients, %: (54.4) %
  Time to progression: Patients with event, %: (45.6) %
[2]; [7]
  BOR: Complete response, number of patients: 0
  BOR: Complete response, percentage of patients: (0.0) %
  BOR: Partial response, number of patients: 25
  BOR: Partial response, percentage of patients: (43.9) %
  BOR: Progressive disease, number of patients: 12
  BOR: Progressive disease, percentage of patients: (21.1) %
  BOR: Stable disease, number of patients: 19
  BOR: Stable disease, percentage of patients: (33.3) %
  ORR: Confidence Interval of responders (two-sided exact binomial 90%): 32.6-55.6
  ORR: Responders, number of patients: 25
  ORR: Responders, percentage of patients: (43.9) %
[2]; [8]
  Progression-free survival: Median time to event: 7.2 months
  Time to progression: Median time to event: 7.2 months
[2]; [9]
  Progression-free survival: Censored patients, %: (52.6) %
  Progression-free survival: Patients with event, %: (47.4) %
[2]; [10]
  Overall survival: Censored patients, %: (78.9) %
  Overall survival: Patients with event, %: (21.1) %
[2]; [11]
  Duration of response: Censored patients, %: (72.2) %
  Duration of response: Patients with event, %: (27.8) %
[2]; 900 μg/kg mitazalimab + mFOLFIRINOX, FAS, n = 18, 95% CI (1.9-3.7)
  Time to response: Median time to event: 2.2 months
[2]; 900 μg/kg mitazalimab + mFOLFIRINOX, FAS, n = 18, 95% CI (5.5; NE)
  Duration of response: Median time to event: 8.7 months
[2]; [12]
  Discontinued study: Death due to disease progression, number of patients: 1
  Discontinued study: Death due to disease progression, percentage of patients: (4.3) %
  Discontinued treatment: Clear clinical deterioration, number of patients: 1
  Discontinued treatment: Clear clinical deterioration, percentage of patients: (4.3) %
  Discontinued treatment: Death due to disease progression, number of patients: 1
  Discontinued treatment: Death due to disease progression, percentage of patients: (4.3) %
  Discontinued treatment: Progressive disease, number of patients: 2
  Discontinued treatment: Progressive disease, percentage of patients: (8.7) %
[2]; [13]
  Discontinued study: Death due to disease progression, number of patients: 1
  Discontinued study: Death due to disease progression, percentage of patients: (2.6) %
  Discontinued treatment: Clear clinical deterioration, number of patients: 1
  Discontinued treatment: Clear clinical deterioration, percentage of patients: (2.6) %
  Discontinued treatment: Death due to disease progression, number of patients: 1
  Discontinued treatment: Death due to disease progression, percentage of patients: (2.6) %
  Discontinued treatment: Progressive disease, number of patients: 3
  Discontinued treatment: Progressive disease, percentage of patients: (7.89) %
[2]; [14]
  Discontinued study: Death due to disease progression, number of patients: 15
  Discontinued study: Death due to disease progression, percentage relative to number discontinued: 83.3%
  Discontinued treatment: Death, number of patients: 1
  Discontinued treatment: Death, percentage relative to number discontinued: 3.0%
  Discontinued treatment: No longer clinically benefiting, number of patients: 3
  Discontinued treatment: No longer clinically benefiting, percentage relative to number discontinued: 9.1%
  Discontinued treatment: Progressive disease, number of patients: 19
  Discontinued treatment: Progressive disease, percentage relative to number discontinued: 57.6%
[2]; [15]
  Discontinued study: Death due to disease progression, number of patients: 3
  Discontinued study: Death due to disease progression, percentage of patients: (7.0) %
  Discontinued treatment: Clear clinical deterioration, number of patients: 1
  Discontinued treatment: Clear clinical deterioration, percentage of patients: (2.3) %
  Discontinued treatment: Death due to disease progression, number of patients: 3
  Discontinued treatment: Death due to disease progression, percentage of patients: (7.0) %
  Discontinued treatment: Progressive disease, number of patients: 5
  Discontinued treatment: Progressive disease, percentage of patients: (11.6) %
[2]; Overall, Table 42
  Discontinued treatment: Death, number of patients: 1
  Discontinued treatment: Death, percentage relative to number discontinued: 2.6%
  Discontinued treatment: No longer clinically benefiting, number of patients: 3
  Discontinued treatment: No longer clinically benefiting, percentage relative to number discontinued: 7.7%
  Discontinued treatment: Progressive disease, number of patients: 24
  Discontinued treatment: Progressive disease, percentage relative to number discontinued: 61.5%
[2]; [16]
  ORR: 52.2%
  disease control rate: 91.3%
[2]; futility analysis, 900 μg/kg mitazalimab and mFOLFIRINOX
  responders with a confirmed response via a subsequent scan: 8 out of 12
[2]; [17]
  Non-target lesion(s) response: Non-CR/non-PD
  Overall response: PD (progressive disease (PD))
  Target lesion(s) response: PD (progressive disease (PD))
[2]; [18]
  Non-target lesion(s) response: Non-CR/non-PD
  Overall response: PD (progressive disease (PD)); also recorded: SD (stable disease (SD))
  Target lesion(s) response: PD (progressive disease (PD)); also recorded: SD (stable disease (SD))
[2]; [19]
  Non-target lesion(s) response: Non-CR/non-PD
  Overall response: SD (stable disease (SD))
  Target lesion(s) response: SD (stable disease (SD))
[2]; [20]
  Non-target lesion(s) response: Non-CR/non-PD
  Overall response: SD (stable disease (SD)); also recorded: PD (progressive disease (PD))
  Target lesion(s) response: SD (stable disease (SD)); also recorded: PD (progressive disease (PD))
[2]; individual patients, 900 μg/kg mitazalimab + mFOLFIRINOX, futility analysis, responses need not be confirmed
  Best Overall Response: PD (progressive disease (PD)); also recorded: SD (stable disease (SD))
